Results from patent US20230175069A1 (published 2023).

Key:
[1] = target: T1, HER3 (Erb-B2 Receptor Tyrosine Kinase 3) (human, UniProt P21860 20-1342); assay: co-immunoprecipitation with anti-HER3 antibody from T47D cells expressing wtCCDC170, western blot with anti-CCDC170 antibody
T1 construct: Endogenous protein of T47D cells, in cell lysate; also called ErbB3

[2] = target: T2, HER2 (Erb-B2 Receptor Tyrosine Kinase 2) (human, UniProt P04626 23-1255); assay: co-immunoprecipitation with anti-HER2 antibody from T47D cells expressing wtCCDC170, western blot with anti-CCDC170 antibody
T2 construct: Endogenous protein of T47D cells, in cell lysate; also called HER2/neu

[3] = target: T3, SRC (SRC Proto-Oncogene, Non-Receptor Tyrosine Kinase) (human, UniProt P12931 2-536); assay: co-immunoprecipitation with anti-SRC antibody from T47D cells expressing wtCCDC170, western blot with anti-CCDC170 antibody
T3 construct: Endogenous protein of T47D cells, in cell lysate

Measured: binding result

T1 sequence (P21860 20-1342 limits assumed): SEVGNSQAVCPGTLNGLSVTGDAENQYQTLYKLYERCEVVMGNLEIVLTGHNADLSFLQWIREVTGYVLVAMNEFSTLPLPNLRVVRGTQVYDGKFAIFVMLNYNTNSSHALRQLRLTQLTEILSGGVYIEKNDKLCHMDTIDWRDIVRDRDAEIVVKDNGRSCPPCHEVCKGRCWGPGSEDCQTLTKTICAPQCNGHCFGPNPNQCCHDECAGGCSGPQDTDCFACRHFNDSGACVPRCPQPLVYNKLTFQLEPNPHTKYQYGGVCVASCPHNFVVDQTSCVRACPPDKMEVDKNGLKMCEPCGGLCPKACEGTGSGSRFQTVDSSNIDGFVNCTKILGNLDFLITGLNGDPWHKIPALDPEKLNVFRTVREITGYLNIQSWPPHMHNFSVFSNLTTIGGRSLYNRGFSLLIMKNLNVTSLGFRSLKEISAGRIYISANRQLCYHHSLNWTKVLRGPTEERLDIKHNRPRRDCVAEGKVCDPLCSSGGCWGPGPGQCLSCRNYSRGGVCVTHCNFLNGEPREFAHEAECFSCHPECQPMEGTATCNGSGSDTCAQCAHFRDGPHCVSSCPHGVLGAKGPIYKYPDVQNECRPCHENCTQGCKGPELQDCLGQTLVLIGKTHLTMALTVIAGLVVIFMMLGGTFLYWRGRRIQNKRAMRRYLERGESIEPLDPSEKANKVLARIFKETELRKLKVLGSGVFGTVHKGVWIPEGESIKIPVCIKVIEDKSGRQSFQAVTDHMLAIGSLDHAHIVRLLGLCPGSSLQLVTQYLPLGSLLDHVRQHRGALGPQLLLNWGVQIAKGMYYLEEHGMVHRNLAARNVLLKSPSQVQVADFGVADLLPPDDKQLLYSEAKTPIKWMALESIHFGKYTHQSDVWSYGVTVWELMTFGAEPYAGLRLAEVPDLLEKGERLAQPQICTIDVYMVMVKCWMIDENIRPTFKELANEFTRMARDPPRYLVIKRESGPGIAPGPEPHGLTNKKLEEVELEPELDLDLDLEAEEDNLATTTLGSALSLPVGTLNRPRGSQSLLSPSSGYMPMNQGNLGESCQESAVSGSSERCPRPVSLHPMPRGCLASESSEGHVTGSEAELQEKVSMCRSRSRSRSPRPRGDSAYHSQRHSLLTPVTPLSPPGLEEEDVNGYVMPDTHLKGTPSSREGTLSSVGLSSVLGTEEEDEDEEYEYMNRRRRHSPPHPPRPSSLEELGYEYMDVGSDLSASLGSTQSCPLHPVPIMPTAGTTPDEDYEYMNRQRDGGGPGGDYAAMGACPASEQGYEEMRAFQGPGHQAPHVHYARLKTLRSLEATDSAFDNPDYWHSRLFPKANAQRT

B1: wild type CCDC170 (Coiled-Coil Domain Containing 170) (other)
chain: MSLDCTSHIALGAASPAPEETYDHLSEVPVTREQLNHYRNVAQNARSELAATLVKFECAQSELQDLRSKMLSKEVSCQELKAEMESYKENNARKSSLLTSLRDRVQELEEESAALSTSKIRTEITAHAAIKENQELKKKVVELNEKLQKCSKENEENKKQVSKNCRKHEEFLTQLRDCLDPDERNDKASDEDLILKLRDLRKENEFVKGQIVILEETINVHEMEAKASRETIMRLASEVNREQKKAASCTEEKEKLNQDLLSAVEAKEALEREVKIFQERLLAGQQVWDASKQEVSLLKKSSSELEKSLKASQDAVTTSQSQYFSFREKIAALLRGRLSMTGSTEDTILEKIREMDSREESRDRMVSQLEAQISELVEQLGKESGFHQKALQRAQKAENMLETLQGQLTHLEAELVSGGVLRDNLNFEKQKYLKFLDQLSQKMKLDQMAAELGFDMRLDVVLARTEQLVRLESNAVIENKTIAHNLQRKLKTQKERLESKELHMSLLRQKIAQLEEEKQARTALVVERDNAHLTIRNLQKKVERLQKELNTCRDLHTELKAKLADTNELKIKTLEQTKAIEDLNKSRDQLEKMKEKAEKKLMSVKSELDTTEHEAKENKERARNMIEVVTSEMKTLKKSLEEAEKREKQLADFREVVSQMLGLNVTSLALPDYEIIKCLERLVHSHQHHFVTCACLKDVTTGQERHPQGHLQLLH
notes: Ectopically expressed in T47D cells and assayed in cell lysate; also called wtCCDC170; WT
no binding: [1] | [2] | [3]
